Measured values: US20250361314A1 (SHANGHAI HUAOTA BIOPHARMACEUTICAL, published 2025)

Legend:
Mouse CD39 antigen = biological target: T1, Mouse CD39 antigen (mouse, UniProt P55772 38-478); experiment: SPR (Biacore 8K), antibody captured on anti-human capture CM5 chip, antigen as analyte
T1 construct: Antigen used as analyte in SPR
T1 sequence (looked up): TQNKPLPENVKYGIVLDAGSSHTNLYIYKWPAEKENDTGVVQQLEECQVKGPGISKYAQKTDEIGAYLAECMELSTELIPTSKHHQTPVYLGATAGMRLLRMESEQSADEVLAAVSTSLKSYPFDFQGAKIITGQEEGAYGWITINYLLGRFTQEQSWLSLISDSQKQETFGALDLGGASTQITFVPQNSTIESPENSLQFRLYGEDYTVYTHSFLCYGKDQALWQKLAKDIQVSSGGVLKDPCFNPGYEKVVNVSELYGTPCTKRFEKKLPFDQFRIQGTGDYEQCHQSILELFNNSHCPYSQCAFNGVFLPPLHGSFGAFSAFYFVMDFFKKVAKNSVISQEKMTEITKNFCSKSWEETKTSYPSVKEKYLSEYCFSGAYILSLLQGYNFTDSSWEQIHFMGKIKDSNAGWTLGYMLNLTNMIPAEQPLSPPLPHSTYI
Protocol: (§1) The experimental method is as follows:
(§2) An Anti-Human Capture-CM5 chip (GE, #BR-1005-30) was prepared using coupling methods of a Human Antibody Capture Kit (GE, #BR-1008-39) and an amino coupling kit (GE, BR-1000-50). The chip was equilibrated at room temperature for about 20-30 min and loaded into a Biacore 8K instrument. The antigen and antibody were diluted to an experimental working concentration using an equilibration buffer. The antigen was diluted with an equilibrium buffer to 50 nM, and then diluted three-fold for seven concentration gradients, and two zero concentrations (i.e., the equilibrium buffer) and one repeat concentration (typically the lowest concentration repeat) were set. Experimental analysis was performed on 10 antigen concentrations (2 zero concentrations, 7 gradient concentrations, and 1 repeated concentration) in a cyclic manner according to an order of antibody, antigen, and regeneration. The antigen injection flow rate was 30 μL/min, the binding time was 120 s, and the dissociation time was 600 s. Following the analysis, the data was analyzed using the corresponding analysis program to confirm that there was no obvious reference binding. Using Kinetics and a 1:1 binding model, the data was fit to obtain the kinetic related parameters Ka, Kd, and KD values of the bispecific antibodies.

Mouse CD73 antigen = biological target: T2, Mouse CD73 antigen (mouse, UniProt Q61503 29-549, limits assumed); experiment: as above
T2 construct: Antigen used as analyte in SPR
T2 sequence (looked up): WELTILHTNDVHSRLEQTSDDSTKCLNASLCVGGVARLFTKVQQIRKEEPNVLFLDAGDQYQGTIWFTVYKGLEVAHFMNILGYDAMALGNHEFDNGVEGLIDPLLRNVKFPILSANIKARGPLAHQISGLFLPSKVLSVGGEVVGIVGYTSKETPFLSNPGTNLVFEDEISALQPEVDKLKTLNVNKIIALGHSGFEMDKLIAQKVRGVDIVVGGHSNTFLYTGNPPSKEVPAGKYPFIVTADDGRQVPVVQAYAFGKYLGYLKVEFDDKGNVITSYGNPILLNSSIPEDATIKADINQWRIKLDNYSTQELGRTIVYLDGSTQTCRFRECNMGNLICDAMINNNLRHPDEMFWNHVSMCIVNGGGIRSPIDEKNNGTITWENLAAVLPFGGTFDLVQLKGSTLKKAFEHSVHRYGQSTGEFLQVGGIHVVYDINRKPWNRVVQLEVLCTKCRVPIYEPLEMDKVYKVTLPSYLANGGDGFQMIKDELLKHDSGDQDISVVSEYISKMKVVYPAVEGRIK
Protocol: as §1, §2

B1: CD39/CD73 bispecific antibody 700035 (CD39-VHH-CD73-IgG) (bispecific antibody)
heavy: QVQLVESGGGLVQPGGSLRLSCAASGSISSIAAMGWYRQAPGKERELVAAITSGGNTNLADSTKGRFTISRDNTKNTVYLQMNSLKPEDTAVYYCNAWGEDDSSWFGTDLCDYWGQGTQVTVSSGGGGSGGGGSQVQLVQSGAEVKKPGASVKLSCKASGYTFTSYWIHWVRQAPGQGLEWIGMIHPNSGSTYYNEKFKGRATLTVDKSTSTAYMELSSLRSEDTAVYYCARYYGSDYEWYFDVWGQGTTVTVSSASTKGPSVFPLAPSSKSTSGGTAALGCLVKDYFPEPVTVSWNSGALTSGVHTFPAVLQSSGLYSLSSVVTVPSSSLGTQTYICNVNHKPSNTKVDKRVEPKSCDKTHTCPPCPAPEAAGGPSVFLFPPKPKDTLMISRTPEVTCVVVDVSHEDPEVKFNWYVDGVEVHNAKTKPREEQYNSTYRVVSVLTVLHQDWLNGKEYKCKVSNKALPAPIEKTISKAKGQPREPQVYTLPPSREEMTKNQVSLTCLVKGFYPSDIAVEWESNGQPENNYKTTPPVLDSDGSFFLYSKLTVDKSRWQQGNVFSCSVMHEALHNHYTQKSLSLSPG
light: DIQMTQSPSSMSASVGDRVTITCKASQNVRTAVVWYQQKPGKAPKALIYLASNRHTGVPDRFSGSGSGTDFTLTISSLQPEDFATYFCLQHWNYPYTFGQGTKLEIKRTVAAPSVFIFPPSDEQLKSGTASVVCLLNNFYPREAKVQWKVDNALQSGNSQESVTEQDSKDSTYSLSSTLTLSKADYEKHKVYACEVTHQGLSSPVTKSFNRGEC
- binding result (Mouse CD39 antigen): no binding (tested: 50 nM (highest antigen concentration))
- binding result (Mouse CD73 antigen): no binding (tested: 50 nM (highest antigen concentration))
